# Experimental data from patent US20200407442A1 (WUXI BIOLOGICS IRELAND, published 2020).
# T1: human LAG-3-ECD.D12.mFc mutant L134A (human, UniProt P18627 37-252)
# T1 construct: Alanine scanning mutant; construct limits as for m26
# T1 chain: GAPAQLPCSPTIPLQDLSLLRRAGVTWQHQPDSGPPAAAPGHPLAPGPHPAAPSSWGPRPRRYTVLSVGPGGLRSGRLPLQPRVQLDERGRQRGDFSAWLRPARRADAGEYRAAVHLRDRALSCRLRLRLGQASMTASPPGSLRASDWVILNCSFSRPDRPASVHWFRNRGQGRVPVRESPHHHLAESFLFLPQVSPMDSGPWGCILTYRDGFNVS
# T2: human LAG-3-ECD.D12.mFc mutant V151A (human, UniProt P18627 37-252)
# T2 construct: Alanine scanning mutant; construct limits as for m26
# T2 chain: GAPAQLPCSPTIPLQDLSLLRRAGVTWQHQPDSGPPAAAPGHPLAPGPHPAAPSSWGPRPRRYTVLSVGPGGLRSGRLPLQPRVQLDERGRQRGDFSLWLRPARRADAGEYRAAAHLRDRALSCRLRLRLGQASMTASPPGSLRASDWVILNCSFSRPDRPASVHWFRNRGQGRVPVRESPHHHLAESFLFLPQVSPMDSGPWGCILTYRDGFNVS
# T3: human LAG-3-ECD.D12.mFc mutant T100A (human, UniProt P18627 37-252)
# T3 construct: Alanine scanning mutant; construct limits as for m26
# T3 chain: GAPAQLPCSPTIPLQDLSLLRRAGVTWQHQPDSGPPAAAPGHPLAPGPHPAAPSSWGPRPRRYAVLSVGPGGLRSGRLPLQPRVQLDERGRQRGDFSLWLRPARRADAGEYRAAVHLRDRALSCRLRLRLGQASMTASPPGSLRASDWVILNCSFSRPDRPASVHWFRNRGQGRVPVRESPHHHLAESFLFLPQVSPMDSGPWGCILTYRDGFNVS
# T4: human LAG-3-ECD.D12.mFc mutant R163A (human, UniProt P18627 37-252)
# T4 construct: Alanine scanning mutant; construct limits as for m26
# T4 chain: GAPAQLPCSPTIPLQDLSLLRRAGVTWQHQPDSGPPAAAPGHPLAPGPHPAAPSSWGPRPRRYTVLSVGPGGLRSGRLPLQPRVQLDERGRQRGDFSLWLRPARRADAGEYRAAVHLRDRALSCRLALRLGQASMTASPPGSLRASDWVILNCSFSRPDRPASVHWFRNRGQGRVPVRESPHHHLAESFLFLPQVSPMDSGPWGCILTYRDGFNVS
# T5: human LAG-3-ECD.D12.mFc mutant W135A (human, UniProt P18627 37-252)
# T5 construct: Alanine scanning mutant; construct limits as for m26
# T5 chain: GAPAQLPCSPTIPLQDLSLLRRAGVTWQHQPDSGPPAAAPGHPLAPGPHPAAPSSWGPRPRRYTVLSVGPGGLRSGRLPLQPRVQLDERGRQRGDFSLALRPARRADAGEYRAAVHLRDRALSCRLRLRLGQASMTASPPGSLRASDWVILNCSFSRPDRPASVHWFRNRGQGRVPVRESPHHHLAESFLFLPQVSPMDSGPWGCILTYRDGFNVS
# T6: human LAG-3-ECD.D12.mFc mutant R137A (human, UniProt P18627 37-252)
# T6 construct: Alanine scanning mutant; construct limits as for m26
# T6 chain: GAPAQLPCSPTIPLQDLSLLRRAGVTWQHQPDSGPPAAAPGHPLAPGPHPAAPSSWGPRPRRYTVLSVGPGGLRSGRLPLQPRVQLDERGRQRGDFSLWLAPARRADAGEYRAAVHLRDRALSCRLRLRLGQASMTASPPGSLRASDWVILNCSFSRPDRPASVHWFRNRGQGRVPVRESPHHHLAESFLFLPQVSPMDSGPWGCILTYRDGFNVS
# T7: human LAG-3-ECD.D12.mFc mutant L136A (human, UniProt P18627 37-252)
# T7 construct: Alanine scanning mutant; construct limits as for m26
# T7 chain: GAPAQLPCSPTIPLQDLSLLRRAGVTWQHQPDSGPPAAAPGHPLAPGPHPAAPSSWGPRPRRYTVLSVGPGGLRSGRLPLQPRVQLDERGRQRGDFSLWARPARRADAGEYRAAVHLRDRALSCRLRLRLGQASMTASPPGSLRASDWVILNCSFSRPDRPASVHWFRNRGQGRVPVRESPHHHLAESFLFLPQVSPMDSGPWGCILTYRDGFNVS
# T8: human LAG-3-ECD.D12.mFc mutant G130A (human, UniProt P18627 37-252)
# T8 construct: Alanine scanning mutant; construct limits as for m26
# T8 chain: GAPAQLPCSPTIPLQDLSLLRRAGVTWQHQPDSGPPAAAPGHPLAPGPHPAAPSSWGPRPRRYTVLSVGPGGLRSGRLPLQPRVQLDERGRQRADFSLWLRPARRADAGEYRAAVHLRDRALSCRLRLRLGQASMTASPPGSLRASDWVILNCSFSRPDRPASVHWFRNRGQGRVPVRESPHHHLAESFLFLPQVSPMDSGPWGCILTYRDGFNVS
# Legend:
# Assay in all cases: ELISA, antibody coated, LAG-3 D12.mFc mutant in supernatant, normalised to control mutants
# [1] = target: T1, human LAG-3-ECD.D12.mFc mutant L134A
# Method in brief: (§1)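 Antibody 1.53.3-uAb-IgG4k or 3.40.19-uAb-hIgG4L coated at 2 μg/mL, then exposed to supernatant containing quantified LAG-3 D12.mFc mutants. Detection with HRP anti-mFc (1:5000). Absorbance normalized to mean of control mutants; binding fold change <0.75 set as epitope cutoff.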
# [2] = target: T2, human LAG-3-ECD.D12.mFc mutant V151A
# Method in brief: as §1
# [3] = target: T3, human LAG-3-ECD.D12.mFc mutant T100A
# Method in brief: as §1
# [4] = target: T4, human LAG-3-ECD.D12.mFc mutant R163A
# Method in brief: as §1
# [5] = target: T5, human LAG-3-ECD.D12.mFc mutant W135A
# Method in brief: as §1
# [6] = target: T6, human LAG-3-ECD.D12.mFc mutant R137A
# Method in brief: as §1
# [7] = target: T7, human LAG-3-ECD.D12.mFc mutant L136A
# Method in brief: as §1
# [8] = target: T8, human LAG-3-ECD.D12.mFc mutant G130A
# Method in brief: as §1
binder,measurement,setting,value
"3.40.19-uAb-IgG4L (antibody, V domains shown, Fully human antibody from OMT rats; IgG4 lambda by its name; also called 3.40.19-uAb-hIgG4L) VH: QLQLQESGPGLVKPSETLSLTCTVSGDSISSTSYYWGWIRQPPGKGLEWIGSFYYSGSTYYNPSLKSRVTISVDTSKNQFSLKLNSVTAADTAVYYCARMQLWSYDVDVWGQGTTVTVSS VL: QSALTQPASVSGSPGQSITISCTGTSSDVGGYDYVAWYQQHPGKVPKLMIYDVSERPSGVSNRFSGSKSGNTASLTISGLQAEDEADYYCSSYTSTTTLVVFGGGTKLSVL",Fold Change,[1],0.04
same,Fold Change,[2],0.043
same,Fold Change,[3],0.738
same,Fold Change,[4],0.655
same,Fold Change,[5],0.049
same,Fold Change,[6],0.101
same,Fold Change,[7],0.043
same,Fold Change,[8],0.102
